For one data set, the target named is T1, MTH1203 (Methanothermobacter thermautotrophicus …, UniProt O27271 1-636).
T1 sequence: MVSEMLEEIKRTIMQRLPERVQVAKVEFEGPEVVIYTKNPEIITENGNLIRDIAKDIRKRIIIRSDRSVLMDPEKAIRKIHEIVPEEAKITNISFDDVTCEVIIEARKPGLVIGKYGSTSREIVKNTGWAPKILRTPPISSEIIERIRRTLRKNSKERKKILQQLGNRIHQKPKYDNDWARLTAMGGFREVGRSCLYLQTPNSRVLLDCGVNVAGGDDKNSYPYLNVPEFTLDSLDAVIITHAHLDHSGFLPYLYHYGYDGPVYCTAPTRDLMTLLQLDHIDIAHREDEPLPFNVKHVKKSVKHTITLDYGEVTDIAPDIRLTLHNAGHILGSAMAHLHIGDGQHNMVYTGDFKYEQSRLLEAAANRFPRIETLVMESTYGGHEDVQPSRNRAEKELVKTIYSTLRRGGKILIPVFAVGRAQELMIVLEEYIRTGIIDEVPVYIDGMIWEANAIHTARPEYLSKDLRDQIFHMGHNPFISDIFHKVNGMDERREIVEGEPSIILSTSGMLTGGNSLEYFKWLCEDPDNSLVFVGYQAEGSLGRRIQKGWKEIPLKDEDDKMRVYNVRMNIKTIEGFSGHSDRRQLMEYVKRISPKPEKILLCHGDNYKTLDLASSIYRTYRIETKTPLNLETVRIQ
Kind of data set: fluorescence anisotropy; 20 mM Tris pH 8.0, 1 M NaCl, 5 nM 5'-fluorescein RNA; temperature not stated. The note with it: protein: recombinant; tags: His-tag (His-tagged construct used in titrations); label: 5' fluorescein; single strand.

Data set [1] deals with the molecule itself. Kind of data set: SEC-MALS; size exclusion chromatography in line with multiangle laser light scattering; MTH1203 alone; 0.5 M NaCl, or 0.7 M NaCl or KCl. (Size exclusion chromatography separates by hydrodynamic size, large species first.)

Five molecules from PMC3095777, “Structure and Activity of a Novel Archaeal β-CASP Protein with N-Terminal KH Domains” (Structure(London, England:1993), 2011) can be followed below.

In the case of CCCCCCC (ssRNA) [C7], the binding result with MTH1203 is listed as “no binding”.

Take AAAAAAA (ssRNA) [A7]: the binding result with MTH1203 is on record as “no binding”.

For UUUUUUU (ssRNA) [U7], in the data set with MTH1203, the equilibrium dissociation constant (Kd) was determined as 9.2 µM.

With GGGGGGG (ssRNA) [G7], the binding result in the data set with MTH1203 is “no binding”.

B1: MTH1203 (enzyme, Methanothermobacter thermautotrophicus, UniProt O27271 1-636, looked up)
chain: MVSEMLEEIKRTIMQRLPERVQVAKVEFEGPEVVIYTKNPEIITENGNLIRDIAKDIRKRIIIRSDRSVLMDPEKAIRKIHEIVPEEAKITNISFDDVTCEVIIEARKPGLVIGKYGSTSREIVKNTGWAPKILRTPPISSEIIERIRRTLRKNSKERKKILQQLGNRIHQKPKYDNDWARLTAMGGFREVGRSCLYLQTPNSRVLLDCGVNVAGGDDKNSYPYLNVPEFTLDSLDAVIITHAHLDHSGFLPYLYHYGYDGPVYCTAPTRDLMTLLQLDHIDIAHREDEPLPFNVKHVKKSVKHTITLDYGEVTDIAPDIRLTLHNAGHILGSAMAHLHIGDGQHNMVYTGDFKYEQSRLLEAAANRFPRIETLVMESTYGGHEDVQPSRNRAEKELVKTIYSTLRRGGKILIPVFAVGRAQELMIVLEEYIRTGIIDEVPVYIDGMIWEANAIHTARPEYLSKDLRDQIFHMGHNPFISDIFHKVNGMDERREIVEGEPSIILSTSGMLTGGNSLEYFKWLCEDPDNSLVFVGYQAEGSLGRRIQKGWKEIPLKDEDDKMRVYNVRMNIKTIEGFSGHSDRRQLMEYVKRISPKPEKILLCHGDNYKTLDLASSIYRTYRIETKTPLNLETVRIQ
notes: MTH1203 from Methanothermobacter thermautotrophicus strain delta H; mth1203 gene amplified from genomic DNA, cloned into pETYSBLIC-3C; predicted molecular mass 73.1 kDa; residues up to 636 named; Dimer at 0.5-0.7 M NaCl or KCl, monomer at 1 M NaCl; full cloning and purification details are in the Supplemental Experimental Procedures; also called β-CASP metallo-β-lactamase family nuclease; source: …
With B1, in data set [1], the “stoichiometry N” value was 2.

By Kd is commonly meant a measure of binding affinity in units of concentration. The stoichiometry N is the number of molecules, sites or subunits per partner or assembly.
